Consider 2 compounds from US20260166158A1, “HSP90-BINDING CONJUGATES AND FORMULATIONS THEREOF” (Fusion Pharmaceuticals Inc., priority 2019, published 2026).

What all share (format): in vivo
For series [1], the system named is NCI-H460 tumor-bearing mice (lung cancer). Put plainly: Biodistribution: lutetium accumulation in tumor, plasma and healthy tissues by ICP-MS. The conditions noted are these: 24 h; for Kidney uptake, % ID/g 24 h / Liver uptake, % ID/g 24 h / Plasma, % ID/g 24 h / Tumor uptake, % ID/g, 24 h: second table. The essentials: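 NCI-H460 tumor-bearing mice received 0.5 mg/kg lutetium conjugates; at set time points tumor, liver, kidneys and plasma were collected. Lutetium content measured by ICP-MS and expressed as % ID/g, with 24 h tumor/kidney, tumor/liver and tumor/plasma ratios.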

Series [2] relates to NCI-H460 tumor model. The series can be described thus: Distribution of cold (Lu175) analog of CMP6. How it is done:
In yet another study with the NCI-H460 tumor model, the distribution of the cold analog of CMP6 was measured at 24 hours and 72 hours.

Series [3] has as its system NCI-H460 tumor model. Put plainly: Distribution of radioactive (177Lu) versus non-radioactive (175Lu) analog of CMP51. The conditions noted are these: radioactive analog comprising Lu177. The method, then: In another study with the NCI-H460 tumor model, the distribution of the radioactive (hot) analog of CMP51 (177Lu) and the distribution of the non-radioactive (cold) analog of CMP51 (175Lu) at 24 hours and 72 hours were tested and compared.

[4] abbreviates: cold analog, 24 hours and 72 hours, FIG. 2.

Consider `CCNC(=O)c1nnc(-c2cc(C(C)C)c(O)cc2O)n1-c1ccc(OC2CCN(C(=O)CCOCCOCCOCCOCCNC(=O)[C@H](CCCCNC(=O)CCCc3ccc(I)cc3)NC(=O)CN3CCN4CCN5CCN(CC3)CC(=O)[O][Lu]([O]C(=O)C4)[O]C(=O)C5)CC2)cc1` [CMP6], for which, in series [1], the “T/K (Tumor/Kidney ratio)” value came out at 5.48; the “T/L (Tumor/Liver ratio)” value was found to be 4.98; the “T/P (Tumor/Plasma ratio)” value worked out at 1.98; the “Kidney uptake, % ID/g 24 h” value is recorded as 0.62 % ID/g. In series [1], the “Liver uptake, % ID/g 24 h” value is 0.68 % ID/g; the “Plasma, % ID/g 24 h” value came out at 1.72 % ID/g; the “Tumor uptake, % ID/g, 24 h” value is 3.40 % ID/g. Moreover, in the series with NCI-H460 tumor model [2] (setting [4]), the “kidney uptake and retention” value was “significantly reduced kidney uptake and retention”; the liver uptake result is on record as “significantly reduced”. Besides, the “tumor to liver and tumor to kidney ratios at 72 hours” value in the series with NCI-H460 tumor model [2] (cold analog, 72 hours versus 24 hours) is listed as “enhanced at 72 hours”. Further, the “tumor to liver and tumor to kidney ratios” value in the series with NCI-H460 tumor model [2] (cold analog, FIG. 2) is “High tumor to liver and tumor to kidney ratios”. In addition, in the series with NCI-H460 tumor model [2] (non-radioactive analog comprising Lu175), the “tumor retention selectivity (FIG. 2 legend)” value was “selective tumor retention over kidney and liver”.

In the case of `CCNC(=O)c1nnc(-c2cc(C(C)C)c(O)cc2O)n1-c1ccc(CN2CCN(C(=O)CCNC(=O)[C@@H](CCC(=O)O)NC(=O)[C@@H](CCC(=O)O)NC(=O)[C@@H](CCC(=O)O)NC(=O)COCCOCCNC(=O)CCCCn3cc(CN(CCCNC(=O)CC[C@H](C(=O)O)N4CCN5CCN6CC(=O)[O][Lu]([O]C(=O)C5)[C]5(C6)OC(=O)CN5CC4)C(=O)CCCNC(=O)CCCc4ccc(I)cc4)nn3)CC2)cc1` (some centres unmarked) [CMP51], in series [1], the “T/K (Tumor/Kidney ratio)” value is recorded as 0.7; the “T/L (Tumor/Liver ratio)” value was determined as 5.6; the “T/P (Tumor/Plasma ratio)” value is listed as 2.5; the “Kidney uptake, % ID/g 24 h” value came out at 10.37 % ID/g. In series [1], the “Liver uptake, % ID/g 24 h” value is 1.35 % ID/g; the “Plasma, % ID/g 24 h” value is recorded as 3.01 % ID/g; the “Tumor uptake, % ID/g, 24 h” value turned out to be 7.54 % ID/g. Moreover, the “tumor exposure selectivity (FIG. 1 legend)” value with NCI-H460 tumor model [3] is “selective tumor exposure with the exception of kidney”.
